In paper PMC2756588:

T1: Nbp2, Q12163
T1 sequence (Q12163 103-180, looked up): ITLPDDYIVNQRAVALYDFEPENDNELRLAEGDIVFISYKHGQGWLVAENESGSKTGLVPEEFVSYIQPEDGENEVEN

T2: Fus1, P11710
T2 sequence (P11710 432-512, looked up): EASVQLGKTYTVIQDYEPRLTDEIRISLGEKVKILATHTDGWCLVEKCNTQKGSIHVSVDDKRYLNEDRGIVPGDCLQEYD

T3: Boi1, P38041
T3 sequence (P38041 1-86, looked up): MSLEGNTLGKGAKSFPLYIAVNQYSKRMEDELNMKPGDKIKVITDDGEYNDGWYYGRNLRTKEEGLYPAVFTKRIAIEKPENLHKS

T4: Lsb3, P43603
T4 sequence (P43603 385-451, looked up): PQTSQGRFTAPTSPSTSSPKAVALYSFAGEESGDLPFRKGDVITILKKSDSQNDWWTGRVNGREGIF

T5: Myo5, Q04439
T5 sequence (Q04439 1072-1160, looked up): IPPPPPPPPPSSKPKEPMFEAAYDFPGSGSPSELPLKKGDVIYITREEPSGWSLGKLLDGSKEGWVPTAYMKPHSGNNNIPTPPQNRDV

T6: Pex13, P80667
T6 sequence (P80667 295-386, looked up): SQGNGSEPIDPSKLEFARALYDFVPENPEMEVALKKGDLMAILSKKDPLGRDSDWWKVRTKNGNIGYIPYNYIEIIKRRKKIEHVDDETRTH

T7: Bzz1-1, P38822
T7 sequence (P38822 478-572, looked up): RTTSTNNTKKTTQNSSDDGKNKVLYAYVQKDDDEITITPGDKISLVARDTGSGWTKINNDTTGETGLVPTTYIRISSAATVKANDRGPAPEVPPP

T8: Hof1, Q05080
T8 sequence (Q05080 590-669, looked up): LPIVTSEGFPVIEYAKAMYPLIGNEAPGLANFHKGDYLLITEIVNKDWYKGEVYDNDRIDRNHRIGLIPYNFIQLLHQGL

T9: Lsb1, P53281
T9 sequence (P53281 45-122, looked up): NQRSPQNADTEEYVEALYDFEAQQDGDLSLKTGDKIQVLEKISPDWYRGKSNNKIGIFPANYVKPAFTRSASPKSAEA

T10: Lsb4, P32793
T10 sequence (P32793 402-468, looked up): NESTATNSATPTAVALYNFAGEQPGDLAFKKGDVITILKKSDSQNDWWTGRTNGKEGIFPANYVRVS

T11: Hse1, P38753
T11 sequence (P38753 208-285, looked up): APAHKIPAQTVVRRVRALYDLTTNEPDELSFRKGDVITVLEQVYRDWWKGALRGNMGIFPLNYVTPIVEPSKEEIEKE

T12: Pin3, Q06449
T12 sequence (Q06449 53-122, looked up): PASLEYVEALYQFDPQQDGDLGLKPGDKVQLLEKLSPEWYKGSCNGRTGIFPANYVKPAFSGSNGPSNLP

T13: Bzz1-2, P38822
T13 sequence (P38822 568-633, looked up): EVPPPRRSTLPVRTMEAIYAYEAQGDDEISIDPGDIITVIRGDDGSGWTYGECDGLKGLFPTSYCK

T14: Sla1-3, P32790
T14 sequence (P32790 344-424, looked up): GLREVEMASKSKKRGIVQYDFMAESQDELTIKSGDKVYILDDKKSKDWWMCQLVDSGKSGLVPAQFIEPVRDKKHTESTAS

T15: Bbc1, P47068
T15 sequence (P47068 1-78, looked up): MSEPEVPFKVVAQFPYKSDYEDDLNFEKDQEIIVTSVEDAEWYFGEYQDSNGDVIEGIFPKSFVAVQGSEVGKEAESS

T16: Abp1, P15891
T16 sequence (P15891 535-592, looked up): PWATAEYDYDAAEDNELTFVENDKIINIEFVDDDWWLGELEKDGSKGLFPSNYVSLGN

T17: Bud14, P27637
T17 sequence (P27637 247-328, looked up): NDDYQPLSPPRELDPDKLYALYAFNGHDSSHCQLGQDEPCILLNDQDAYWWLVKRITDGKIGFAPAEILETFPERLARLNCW

T18: Boi2, P39969
T18 sequence (P39969 32-116, looked up): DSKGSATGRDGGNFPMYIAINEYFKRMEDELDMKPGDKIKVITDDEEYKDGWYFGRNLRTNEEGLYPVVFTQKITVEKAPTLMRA

T19: Cdc25, P04821
T19 sequence (P04821 50-136, looked up): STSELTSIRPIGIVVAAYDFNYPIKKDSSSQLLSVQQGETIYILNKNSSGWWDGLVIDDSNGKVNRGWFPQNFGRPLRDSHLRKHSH

T20: Sla1-2, P32790
T20 sequence (P32790 60-140, looked up): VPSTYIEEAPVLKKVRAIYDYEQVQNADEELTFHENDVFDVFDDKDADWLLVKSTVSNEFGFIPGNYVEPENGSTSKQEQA

T21: Cyk3, Q07533
T21 sequence (Q07533 1-83, looked up): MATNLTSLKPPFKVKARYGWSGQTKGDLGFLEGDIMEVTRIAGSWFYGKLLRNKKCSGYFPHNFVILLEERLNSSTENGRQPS


These binders were tested against T1, Nbp2, Q12163 (assay: SPOT array). Settings: median of control spots 357.

| Binder | SPOT intensity |
| --- | --- |
| QQNRPLPQLPNRNNR | 0 |
| NPLPKEPRLPKRKVA | 0 |

These binders were tested against T2, Fus1, P11710 (assay: SPOT array). Settings: median of control spots 1200.

| Binder | SPOT intensity |
| --- | --- |
| QQNRPLPQLPNRNNR | 2 |
| NPLPKEPRLPKRKVA | 2 |

The binders below were run against T3, Boi1, P38041 (assay: SPOT array). Settings: median of control spots 1162.

| Binder | SPOT intensity |
| --- | --- |
| QQNRPLPQLPNRNNR | 1 |
| NPLPKEPRLPKRKVA | 4 |

What follows are binders tested against T4, Lsb3, P43603 (assay: SPOT array). Settings: median of control spots 406.

| Binder | SPOT intensity |
| --- | --- |
| QQNRPLPQLPNRNNR | 484 |
| NPLPKEPRLPKRKVA | 282 |

Each binder was assayed against Myo3, P36006 (assay: SPOT array). Settings: median of control spots 468.

| Binder | SPOT intensity |
| --- | --- |
| QQNRPLPQLPNRNNR | 0 |
| NPLPKEPRLPKRKVA | 7 |

Each binder was assayed against T5, Myo5, Q04439 (assay: SPOT array). Settings: median of control spots 471.

| Binder | SPOT intensity |
| --- | --- |
| QQNRPLPQLPNRNNR | 0 |
| NPLPKEPRLPKRKVA | 0 |

What follows are binders tested against T6, Pex13, P80667 (assay: SPOT array). Settings: median of control spots 1341.

| Binder | SPOT intensity |
| --- | --- |
| QQNRPLPQLPNRNNR | 589 |
| NPLPKEPRLPKRKVA | 16 |

These binders were tested against Rvs167, P39743 (assay: SPOT array). Settings: median of control spots 2707.
Rvs167, P39743, sequence (P39743 419-482): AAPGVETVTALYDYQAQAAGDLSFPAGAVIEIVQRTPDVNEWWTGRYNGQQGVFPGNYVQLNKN

| Binder | SPOT intensity |
| --- | --- |
| QQNRPLPQLPNRNNR | 1310 |
| NPLPKEPRLPKRKVA | 200 |

What follows are binders tested against T7, Bzz1-1, P38822 (assay: SPOT array). Settings: median of control spots 4446.

| Binder | SPOT intensity |
| --- | --- |
| QQNRPLPQLPNRNNR | 4 |
| NPLPKEPRLPKRKVA | 6 |

The binders below were run against T8, Hof1, Q05080 (assay: SPOT array). Settings: median of control spots 4086.

| Binder | SPOT intensity |
| --- | --- |
| QQNRPLPQLPNRNNR | 112 |
| NPLPKEPRLPKRKVA | 5 |

These binders were tested against T9, Lsb1, P53281 (assay: SPOT array). Settings: median of control spots 388.

| Binder | SPOT intensity |
| --- | --- |
| QQNRPLPQLPNRNNR | 176 |
| NPLPKEPRLPKRKVA | 19 |

What follows are binders tested against T10, Lsb4, P32793 (assay: SPOT array). Settings: median of control spots 397.

| Binder | SPOT intensity |
| --- | --- |
| QQNRPLPQLPNRNNR | 484 |
| NPLPKEPRLPKRKVA | 288 |

These binders were tested against T11, Hse1, P38753 (assay: SPOT array). Settings: median of control spots 1727.

| Binder | SPOT intensity |
| --- | --- |
| QQNRPLPQLPNRNNR | 23 |
| NPLPKEPRLPKRKVA | 191 |

These binders were tested against Bem1-2, P29366 (assay: SPOT array). Settings: median of control spots 4347.
Bem1-2, P29366, sequence (P29366 139-227): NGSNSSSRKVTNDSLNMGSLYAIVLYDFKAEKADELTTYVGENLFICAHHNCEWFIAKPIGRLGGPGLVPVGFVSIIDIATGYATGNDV

| Binder | SPOT intensity |
| --- | --- |
| QQNRPLPQLPNRNNR | 1 |
| NPLPKEPRLPKRKVA | 1 |

These binders were tested against T12, Pin3, Q06449 (assay: SPOT array). Settings: median of control spots 2171.

| Binder | SPOT intensity |
| --- | --- |
| QQNRPLPQLPNRNNR | 34 |
| NPLPKEPRLPKRKVA | 10 |

What follows are binders tested against T13, Bzz1-2, P38822 (assay: SPOT array). Settings: median of control spots 4538.

| Binder | SPOT intensity |
| --- | --- |
| QQNRPLPQLPNRNNR | 0 |
| NPLPKEPRLPKRKVA | 29 |

These binders were tested against GST (assay: SPOT array). Settings: median of control spots 978.

| Binder | SPOT intensity |
| --- | --- |
| QQNRPLPQLPNRNNR | 0 |
| NPLPKEPRLPKRKVA | 2 |

These binders were tested against T14, Sla1-3, P32790 (assay: SPOT array). Settings: median of control spots 5475.

| Binder | SPOT intensity |
| --- | --- |
| QQNRPLPQLPNRNNR | 10 |
| NPLPKEPRLPKRKVA | 45 |

What follows are binders tested against T15, Bbc1, P47068 (assay: SPOT array). Settings: median of control spots 796.

| Binder | SPOT intensity |
| --- | --- |
| QQNRPLPQLPNRNNR | 40 |
| NPLPKEPRLPKRKVA | 221 |

Each binder was assayed against T16, Abp1, P15891 (assay: SPOT array). Settings: median of control spots 935.

| Binder | SPOT intensity |
| --- | --- |
| QQNRPLPQLPNRNNR | 228 |
| NPLPKEPRLPKRKVA | 131 |

The binders below were run against Bem1-1, P29366 (assay: SPOT array). Settings: median of control spots 4282.
Bem1-1, P29366, sequence (P29366 55-141): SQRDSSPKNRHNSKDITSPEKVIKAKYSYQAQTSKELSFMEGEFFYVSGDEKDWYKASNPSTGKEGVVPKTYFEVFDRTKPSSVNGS

| Binder | SPOT intensity |
| --- | --- |
| QQNRPLPQLPNRNNR | 3 |
| NPLPKEPRLPKRKVA | 0 |

What follows are binders tested against T17, Bud14, P27637 (assay: SPOT array). Settings: median of control spots 956.

| Binder | SPOT intensity |
| --- | --- |
| QQNRPLPQLPNRNNR | 4 |
| NPLPKEPRLPKRKVA | 26 |

These binders were tested against T18, Boi2, P39969 (assay: SPOT array). Settings: median of control spots 1161.

| Binder | SPOT intensity |
| --- | --- |
| QQNRPLPQLPNRNNR | 1 |
| NPLPKEPRLPKRKVA | 2 |

What follows are binders tested against T19, Cdc25, P04821 (assay: SPOT array). Settings: median of control spots 969.

| Binder | SPOT intensity |
| --- | --- |
| QQNRPLPQLPNRNNR | 2 |
| NPLPKEPRLPKRKVA | 22 |

Each binder was assayed against T20, Sla1-2, P32790 (assay: SPOT array). Settings: median of control spots 712.

| Binder | SPOT intensity |
| --- | --- |
| QQNRPLPQLPNRNNR | 0 |
| NPLPKEPRLPKRKVA | 2 |

These binders were tested against T21, Cyk3, Q07533 (assay: SPOT array). Settings: median of control spots 1451.

| Binder | SPOT intensity |
| --- | --- |
| QQNRPLPQLPNRNNR | 0 |
| NPLPKEPRLPKRKVA | 4 |

What follows are binders tested against Sho1, P40073 (assay: SPOT array). Settings: median of control spots 1148.
Sho1, P40073, sequence (P40073 287-367): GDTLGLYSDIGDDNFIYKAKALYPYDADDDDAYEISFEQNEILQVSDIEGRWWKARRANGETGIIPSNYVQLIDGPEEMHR

| Binder | SPOT intensity |
| --- | --- |
| QQNRPLPQLPNRNNR | 1600 |
| NPLPKEPRLPKRKVA | 107 |
